Data as given in patent publication US20210386866A1 (DEVELOPMENT CENTER FOR BIOTECHNOLOGY, published 2021).

Tests used:
[1] = molecular target: T1, human mesothelin recombinant protein (human, UniProt Q13421 296-580, limits assumed); assay: ELISA, plate coated with mesothelin 1 ug/mL, detection with anti-human kappa light chain antibody
T1 construct: also called mesothelin protein; MSLN
Method: (§1) 100 μL of mesothelin in a coating buffer at a concentration of 1 μg/mL was added to and coated on each well of a plate. The plates were sealed and incubated at 4° C. overnight. The wells were aspirated and washed with 300 μL of PBST (0.05% Tween 20) for 3 times. The wells were blocked by adding 200 μL of PBS-5% skim milk and incubated at 37° C. for 1 hour. The wells were aspirated and washed with 300 μL/well of PBST (0.05% Tween 20) for 3 times. 100 μL of 400 ng ADC sample diluted with PBS was added to each well, and the plates were then incubated at 37° C. for 1 hour. The wells were aspirated and washed with 300 μL of PBST (0.05% Tween 20) for 3 times. 50 μl of anti-human Kappa light chains (1:5000) was added to each well, and the plates were incubated at 37° C. for 1 hour. The wells were aspirated and washed with 300 μL/well of PBST (0.05% Tween 20) for 3 times. 100 μl of TMB was added to each well, and the plates were incubated at room temperature for 15 minutes. The color development was stopped by adding 100 μL of 1N HCl.

[2] = molecular target: T1, human mesothelin recombinant protein; assay: ELISA, plate coated with mesothelin at 1 ug/mL, detection with anti-human Kappa light chains
Method: as §1

[3] = molecular target: T1, human mesothelin recombinant protein; assay: SPR, BIAcore T200, mesothelin coupled to CM5 chip, antibody injected (0.3125 nM to 40 nM), 25 degree C, 1:1 Langmuir model
Method: Carboxymethylated dextran biosensor chips (CM5, Cytiva Inc.) were activated with N-ethyl-N′-(3-dimethylaminopropyl)-carbodiimide hydrochloride (EDC) and N-hydroxysuccinimide (NHS) according to the supplier's instructions. Mesothelin protein was diluted with 10 mM sodium acetate, pH 4.0, into 5 μg/ml before injection at a flow rate of 10 μL/minute to achieve approximately 1500 response units (RU) of coupled protein followed by the injection of 1M ethanolamine to block unreacted groups. For kinetics measurements, two-fold serial dilutions of anti-mesothelin mAb (0.3125 nM to 40 nM) were injected in HBS-EP+ Biacore running buffer provided by the manufacturer (Cytiva Inc.) at 25 degree C. at a flow rate of 30 μL/min, and binding responses on the mesothelin protein were corrected by subtraction of responses on a blank flow cell. Association rates (kon or ka) and dissociation rates (koff or kd) were calculated using a simple one-to-one Langmuir binding model with separate fittings of kon and koff was used. (Cytiva.™. Biacore Insight Evaluation Software).

[4] = molecular target: T1, human mesothelin recombinant protein; assay: ELISA, plate coated with mesothelin protein, serial dilutions of antibody, non-linear regression
Method: (§2) ELISA plates were coated with 1˜2 μg/100 μl per well of mesothelin protein. Wells were rinsed for 3 times with PBS and blocked with 300 μl 5% MPBS per well for 2 hr at 37° C. After washing with PBS, wells were incubated with serial diluted mesothelin antibodies in 5% MPBS for 1.5 hours at 37° C. The plates were washed and goat polyclonal anti-human IgG-HRP antibody (1:10,000) (Jackson ImmunoResearch) was added into each well. The absorbance was measured as described above and the binding affinities of antibodies were calculated by non-linear regression with Prism software (GraphPad).

[5] = molecular target: T1, human mesothelin recombinant protein; assay: ELISA, plate coated with mesothelin protein, serial dilutions of antibody, detection with anti-human IgG-HRP
Method: as §2

[6] = molecular target: T1, human mesothelin recombinant protein; assay: SPR, Biacore T100, antibody captured on anti-human IgG-Fc CM5 chip, human mesothelin recombinant protein as analyte (3.7 to 100 nM), 1:1 Langmuir model
Method: (§3) The kinetic constant of the anti-mesothelin ADCs interaction against mesothelin was determined by surface plasma resonance (Biacore® T100, Biacore, Inc., Piscataway, N.J.). The flow cell of the CM5 wafer was fixed with approximately 10,000 reaction units (RU) of anti-human IgG-Fc (Biacore®) in 10 mM glycine pH 5.0 at 10 μL/min for 600 seconds. 10 μg/mL of anti-mesothelin antibody and anti-mesothelin ADCs diluted in TBS at 10 μl/min were captured on CM5 chips. Four concentrations (from 3.7 to 100 nM) of human mesothelin recombinant protein and zero concentration (flow buffer) in 100 μl/min binding were recorded in PBS containing 1 mM CaCl₂ for 3 minutes. The dissociation of the complex was measured for 10 minutes. The water surface was regenerated by injecting 3 M MgCl₂ and 3 mM EGTA at 10 μl/min for 60 seconds. The curve obtained after subtracting the reference and buffer signals was taken into the 1:1 Langmuir binding model using the Biacore® T100 evaluation software (Biacore®).

[7] = molecular target: T1, human mesothelin recombinant protein; assay: SPR, Biacore T100, ADC captured on anti-human IgG-Fc CM5 chip, human mesothelin recombinant protein as analyte (3.7 to 100 nM), 1:1 Langmuir model
Method: as §3

T1 sequence (Q13421 other isoform, or with tags, fused parts or gaps limits assumed): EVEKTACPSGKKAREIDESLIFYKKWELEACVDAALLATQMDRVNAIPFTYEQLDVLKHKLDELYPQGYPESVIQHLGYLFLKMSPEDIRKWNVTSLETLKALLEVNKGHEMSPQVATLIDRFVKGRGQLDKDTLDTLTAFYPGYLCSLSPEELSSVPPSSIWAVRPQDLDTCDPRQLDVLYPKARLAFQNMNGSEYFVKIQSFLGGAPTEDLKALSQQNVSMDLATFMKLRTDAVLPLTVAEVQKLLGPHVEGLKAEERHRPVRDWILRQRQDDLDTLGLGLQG

B1: DCBPR2002-2(DBCO-vc-seco-DUBA)-2(DBCO-s-DM1) (other)
VH: QVQLVQSGAEVKKPGASVKVSCKASGYSFTGYTMNWVRQAPGQGLEWMGLITPYNGASSYNQKFRGRVTMTRDTSISTAYMELSRLRSDDTAVYYCARGGYDGRGFDYWGQGTLVTVSS
VL: EIVLTQSPATLSLSPGERATLSCSASSSVSYMHWYQQKPGQAPRLLIYDTSKLASGIPARFSGSGSGTDFTLTISSLEPEDFAVYYCQQWSKHPLTFGQGTKVEIKR
modifications: DBCO-vc-seco DUBA (2 per antibody) and DBCO-S-DM1 (2 per antibody) linked through GlcNAz to the tri-mannosyl N-glycan of the heavy chain constant region (DAR ~4)
With B1 the “EC50 (read off the curve)” value [1] was about 0.07 nM and the Kd [2] was 0.0732 nM.

B2: DCBPR2002-4(DBCO-s-DM1) (other)
VH: B1 VH
VL: B1 VL
modifications: DBCO-S-DM1 linked through GlcNAz to the tri-mannosyl N-glycan of the heavy chain constant region; 4 per antibody (DAR ~4)
Binder B2 has a Kd [2] of 0.145 nM.

B3: humanized antibody HuSS1 (DCBPR2002) (antibody, V domains shown)
VH: B1 VH
VL: B1 VL
notes: also called HuSS1-HH; HuSS1 (HH)
B3 gave a Kd [3] of 0.0025 nM, a koff [3] of 1.12e-05 s⁻¹ and a kon [3] of 4.49e+06 M⁻¹ s⁻¹. The Kd [4] was 0.0499 nM, the “EC50 (read off the curve)” value [5] was about 0.05 nM and the “EC50 (read off the curve)” value [1] was about 0.09 nM. For the same binder, the Kd [2] was 0.0924 nM and the Kd [6] was 0.0169 nM.

B4: DCBPR2002-4(DBCO-vc-seco-DUBA) (other)
VH: B1 VH
VL: B1 VL
modifications: DBCO-vc-seco DUBA linked through GlcNAz to the tri-mannosyl N-glycan of the heavy chain constant region; 4 per antibody (DAR ~4)
Binder B4 has a Kd [2] of 0.0975 nM.

B5: DCBPR2002-4(DBCO-vc-MMAE) (other)
VH: B1 VH
VL: B1 VL
modifications: DBCO-vc-MMAE linked through GlcNAz to the tri-mannosyl N-glycan of the heavy chain constant region; 4 per antibody (DAR 3.89 by LC-MS)
Binder B5 has a Kd [7] of 0.0217 nM and a Kd [2] of 0.133 nM.

B6: DCBPR2002-2(DBCO-vc-MMAE)-2(DBCO-s-DM1) (other)
VH: B1 VH
VL: B1 VL
modifications: DBCO-vc-MMAE (2 per antibody) and DBCO-S-DM1 (2 per antibody) linked through GlcNAz to the tri-mannosyl N-glycan of the heavy chain constant region (DAR ~4)
Binder B6 has a Kd [2] of 0.136 nM.

B7: DCBPR2002-2(DBCO-vc-MMAE)-2(DBCO-vc-seco-DUBA) (other)
VH: B1 VH
VL: B1 VL
modifications: DBCO-vc-MMAE (2 per antibody) and DBCO-vc-seco DUBA (2 per antibody) linked through GlcNAz to the tri-mannosyl N-glycan of the heavy chain constant region (DAR ~4)
Binder B7 has a Kd [7] of 0.0256 nM and a Kd [2] of 0.158 nM.

B8: humanized SS1 4D5 (HdSS1) (antibody, V domains shown)
VH: EVQLVESGGGLVQPGGSLRLSCAASGYSFTGYTMNWVRQAPGKGLEWVALITPYNGASSYNQKFRGRFTISRDDSKNTLYLQMNSLRAEDTAVYYCARGGYDGRGFDYWGQGTLVTVSS
VL: DIQMTQSPSSLSASVGDRVTITCSASSSVSYMHWYQQKPGKAPKLLIYDTSKLASGVPSRFSGSGSGTDFTLTISSLQPEDFATYYCQQWSKHPLTFGQGTKVEIKR
notes: also called HdSS1 HH; HdSS1 (HH)
B8 gave a Kd [4] of 26.1 nM.
